Laboratory results from US20070141062A1 (published 2007).
Positions count from the first letter of the chain named. One block for each binder: values may come before it.

Legend:
[1] = target: T1, WT-LP (wild-type large pocket fragment of RB, amino acids 379-928) (UniProt P06400 379-928); experiment: cotransfection in HEK 293, IP with anti-V5, western with anti-Rb (851)
T1 construct: range 379-928; Expressed by cotransfection in HEK 293 cells; Construct from Knudsen et al., 1996; also called Rb large pocket fragment
T1 sequence (looked up): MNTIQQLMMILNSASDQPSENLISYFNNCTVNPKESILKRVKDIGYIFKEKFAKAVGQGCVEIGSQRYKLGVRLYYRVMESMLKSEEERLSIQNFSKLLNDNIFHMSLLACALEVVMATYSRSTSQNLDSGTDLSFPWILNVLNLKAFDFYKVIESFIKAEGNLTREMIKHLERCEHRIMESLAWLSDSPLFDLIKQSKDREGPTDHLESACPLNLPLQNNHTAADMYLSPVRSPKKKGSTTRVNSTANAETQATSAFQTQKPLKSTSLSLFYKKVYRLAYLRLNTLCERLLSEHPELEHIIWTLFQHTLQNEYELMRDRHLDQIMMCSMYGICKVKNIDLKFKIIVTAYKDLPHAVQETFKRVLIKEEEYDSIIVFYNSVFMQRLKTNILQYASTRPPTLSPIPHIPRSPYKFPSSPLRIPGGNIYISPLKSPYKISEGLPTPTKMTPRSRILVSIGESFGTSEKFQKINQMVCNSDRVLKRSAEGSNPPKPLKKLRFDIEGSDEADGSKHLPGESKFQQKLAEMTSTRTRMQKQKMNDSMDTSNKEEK
Text: (§1) Equal amounts of cell extracts were precipitated with anti-V5 antibody. Upper panel, the presence of WT-LP or PSM2T-LP in immunoprecipitates was probed by western blot analysis using anti-Rb antibody (851). The right-hand arrow indicates the position of the Rb large pocket fragment. The lower band present in all three lanes is immunoglobulin heavy chain, which serves as a loading control. Middle panel, anti-V5 immunoprecipitates were subjected to western blot analysis with anti-V5 antibody to confirm pp32V5 immunoprecipitation. Lower panel, cell extracts were subjected to western blotting with anti-Rb antibody (851) to confirm expression of WT-LP and PSM2T-LP.
(§2) Immunoprecipitation and Immunoblotting-1×10⁶ HEK 293 cells were seeded onto a T-150 flask. 24 hours later, cells were transfected with 15 μg of the indicated plasmids. 48 hrs post transfection, cells were harvested, washed twice with cold PBS, and lysed with MPER (Pierce) containing 1× protease inhibitor cocktail (HALT, Pierce). Lysates were centrifuged at 4° C. for 30 minutes at 16,000 g to remove particulate material. The supernatant was precleared for 2 hours with protein A-agarose (Roche). The pre-cleared cell lysates were mixed with the indicated antibodies and protein A- or protein G-agarose (Roche) and incubated at 4° C. overnight. […] The eluted materials were subsequently analyzed by immunoblotting with the indicated antibodies. […]

[2] = target: T2, PSM2T-LP (double T821A/T826A large pocket mutant of RB) (UniProt P06400 379-928); experiment: as above
T2 construct: range 379-928; Expressed by cotransfection in HEK 293 cells
T2 sequence (looked up): T1 sequence (looked up) with T443A, T448A
Text: as §1, §2

[3] = target: T3, Retinoblastoma protein (Rb), endogenous in the cells used (UniProt P06400 2-928); experiment: IP with anti-Rb (G99-2005) from transfected HEK 293 extracts, anti-V5 western
T3 construct: also called endogenous Rb; total Rb
T3 sequence (looked up): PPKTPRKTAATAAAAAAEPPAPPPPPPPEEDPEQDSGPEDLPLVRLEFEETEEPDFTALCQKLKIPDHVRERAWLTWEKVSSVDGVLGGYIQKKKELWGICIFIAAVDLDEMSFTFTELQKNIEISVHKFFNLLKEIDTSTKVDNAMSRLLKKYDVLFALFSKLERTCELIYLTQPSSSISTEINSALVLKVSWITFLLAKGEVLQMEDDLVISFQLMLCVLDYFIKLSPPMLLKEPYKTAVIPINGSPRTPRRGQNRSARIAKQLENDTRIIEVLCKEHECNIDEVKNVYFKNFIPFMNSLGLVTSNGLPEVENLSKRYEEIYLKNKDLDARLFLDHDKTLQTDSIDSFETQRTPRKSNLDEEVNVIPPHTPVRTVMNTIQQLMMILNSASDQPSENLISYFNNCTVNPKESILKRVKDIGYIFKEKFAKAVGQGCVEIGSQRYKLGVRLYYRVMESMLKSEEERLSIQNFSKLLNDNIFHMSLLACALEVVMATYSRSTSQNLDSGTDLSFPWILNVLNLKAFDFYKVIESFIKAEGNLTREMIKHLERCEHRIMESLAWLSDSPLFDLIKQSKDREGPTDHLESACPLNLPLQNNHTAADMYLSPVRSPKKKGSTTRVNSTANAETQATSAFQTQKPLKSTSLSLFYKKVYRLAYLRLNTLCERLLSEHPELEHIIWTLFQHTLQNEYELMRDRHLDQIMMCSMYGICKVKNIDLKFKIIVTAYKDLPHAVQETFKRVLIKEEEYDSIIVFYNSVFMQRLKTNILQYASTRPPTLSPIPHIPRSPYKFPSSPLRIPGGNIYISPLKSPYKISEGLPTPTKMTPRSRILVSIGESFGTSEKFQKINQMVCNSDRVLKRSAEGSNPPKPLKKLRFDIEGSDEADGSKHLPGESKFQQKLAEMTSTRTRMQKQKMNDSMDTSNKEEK
Description: Immunoprecipitation and Immunoblotting-1×10⁶ HEK 293 cells were seeded onto a T-150 flask. 24 hours later, cells were transfected with 15 μg of the indicated plasmids. 48 hrs post transfection, cells were harvested, washed twice with cold PBS, and lysed with MPER (Pierce) containing 1× protease inhibitor cocktail (HALT, Pierce). Lysates were centrifuged at 4° C. for 30 minutes at 16,000 g to remove particulate material. The supernatant was precleared for 2 hours with protein A-agarose (Roche). The pre-cleared cell lysates were mixed with the indicated antibodies and protein A- or protein G-agarose (Roche) and incubated at 4° C. overnight. The next day, the reaction mixture was washed three times with cold PBS, boiled for 3 minutes and eluted in 2×SDS buffer. The eluted materials were subsequently analyzed by immunoblotting with the indicated antibodies.
While pp32 inhibits transformation, pp32r1 (ANP32C) and pp32r2 (ANP32D), both highly homologous to pp32 at the protein level (87.7% and 89.3% respectively) are tumorigenic (Kadkol, S. S., Brody, J. R., Pevsner, J., Bai, J., and Pasternack, G. R. (1999) Nature Med. 5, 275-279). Therefore, the possibility of an interaction between these family members and Rb was explored. pp32r1 and r2 were V5-epitope tagged and overexpressed in HEK 293 cells. HEK 293 cells were transfected with pp32V5, pp32r1V5, pp32r2V5 or LacZV5 expression vectors as indicated. Equal amounts of cell extracts were precipitated with anti-Rb (G99-2005) antibody and analysed by western blotting with anti-V5 antibody. Equal amounts of cell lysates were immunoprecipitated with anti-Rb and immunoblotted with anti-V5.

binding result [1]: binds
binding result [2]: no binding
B1: V5-epitope tagged pp32 (pp32V5) (other, not shown: small tags and cut ends)
chain: MEMGRRIHLELRNRTPSDVKELVLDNSRSNEGKLEGLTDEFEELEFLSTINVGLTSIANLPKLNKLKKLELSDNRVSGGLEVLAEKCPNLTHLNLSGNKIKDLSTIEPLKKLENLKSLDLFNCEVTNLNDYRENVFKLLPQLTYLDGYDRDDKEAPDSDAEGYVEGLDDEEEDEDEEEYDEDAQVVEDEEDEDEEEEGEEEDVSGEEEEDEEGYNDGEVDDEEDEEELGEEERGQKRKREPEDEGEDDD
notes: Expressed by transient transfection in HEK 293 (or NIH 3T3) cells and tested in cell extracts; also called V5-tagged pp32

binding result [3]: no binding
B2: pp32r1V5 (V5-epitope tagged pp32r1, ANP32C) (other, UniProt O43423 1-234, looked up, not shown: small tags and cut ends)
chain: MEMGRRIHSELRNRAPSDVKELALDNSRSNEGKLEALTDEFEELEFLSKINGGLTSISDLPKLKLRKLELRVSGGLEVLAEKCPNLTHLYLSGNKIKDLSTIEPLKQLENLKSLDLFNCEVTNLNDYGENVFKLLLQLTYLDSCYWDHKEAPYSDIEDHVEGLDDEEEGEHEEEYDEDAQVVEDEEGEEEEEEGEEEDVSGGDEEDEEGYNDGEVDGEEDEEELGEEERGQKRK
notes: Overexpressed in HEK 293 cells

binding result [3]: no binding
B3: pp32Δ201-360V5 (other, not shown: small tags and cut ends)
chain: MEMGRRIHLELRNRTPSDVKELVLDNSRSNEGKLEGLTDEFEELEFLSTINVGLTSIANLPKLNKLFNCEVTNLNDYRENVFKLLPQLTYLDGYDRDDKEAPDSDAEGYVEGLDDEEEDEDEEEYDEDAQVVEDEEDEDEEEEGEEEDVSGEEEEDEEGYNDGEVDDEEDEEELGEEERGQKRKREPEDEGEDDD
notes: also called pp32D201-360V5

binding result [3]: no binding
B4: pp32r2V5 (V5-epitope tagged pp32r2, ANP32D) (other, UniProt O95626 1-131, looked up, not shown: small tags and cut ends)
chain: MEMGKWIHLELRNRTPSDVKELFLDNSQSNEGKLEGLTDEFEELELLNTINIGLTSIANLPKLNKLKKLELSSNRASVGLEVLAEKCPNLIHLNLSGNKIKDLSTIEPLKKLENLESLDLFTCEVTNLNNY
notes: as for B2
